Results taken from article PMC9135441.

Legend:
CCCCCC(O)C=CC=O = experiment: purified protein; details: NADPH
[1] = system: O=C[C@H](O)[C@@H](O)[C@H](O)[C@@H](O)CO; experiment: purified protein; details: NADPH

aldose reductase (AKR1B1) (Homo sapiens)
Km (CCCCCC(O)C=CC=O): 51 ± 5 µM
Km [1]: 4260 ± 350 µM
